Measurements: article PMC7152510 (Nature structural & molecular biology, 2017)
Read-outs that look alike come from different tables or passages of the source. Each block holds one molecule with its values, some of them ahead of it.

Key:
[1] = molecular target: ΔMIT katanin p60 (E293Q) (Caenorhabditis elegans); test: solution SAXS
AUC [2] = molecular target: the molecule itself; test: AUC
AUC [3] = molecular target: the molecule itself; test: AUC; remark: listed apart in the source

- stoichiometry N [1]: 6
Molecule: ΔMIT katanin p60 (E293Q) (domain or fragment)

B1: Caenorhabditis elegans katanin p60 (MEI-1), catalytic subunit, wild type (enzyme, UniProt P34808 1-472, looked up)
chain: MNGDVQSVIRGYLERAQVAKTMSDAGRWNEAGDLLRQLMTDVKSCKISASNRDEHDARNTFLRALEANLKLVQQNVRDEDDLHEAMTRQSGSPEPPADPDVWSKPSPPLPSSSKFGATKKGVGAAGPRPREISKSTSSMSTNPADVKPANPTQGILPQNSAGDSFDASAYDAYIVQAVRGTMATNTENTMSLDDIIGMHDVKQVLHEAVTLPLLVPEFFQGLRSPWKAMVLAGPPGTGKTLIARAIASESSSTFFTVSSTDLSSKWRGDSEKIVRLLFELARFYAPSIIFIDEIDTLGGQRGNSGEHEASRRVKSEFLVQMDGSQNKFDSRRVFVLAATNIPWELDEALRRRFEKRIFIPLPDIDARKKLIEKSMEGTPKSDEINYDDLAARTEGFSGADVVSLCRTAAINVLRRYDTKSLRGGELTAAMESLKAELVRNIDFEAALQAVSPSAGPDTMLKCKEWCDSFGAM
- stoichiometry N (AUC [2]): 6

B2: Caenorhabditis elegans katanin p60 (E293Q), Walker B mutant, full-length (enzyme, UniProt P34808 1-472, looked up)
chain: MNGDVQSVIRGYLERAQVAKTMSDAGRWNEAGDLLRQLMTDVKSCKISASNRDEHDARNTFLRALEANLKLVQQNVRDEDDLHEAMTRQSGSPEPPADPDVWSKPSPPLPSSSKFGATKKGVGAAGPRPREISKSTSSMSTNPADVKPANPTQGILPQNSAGDSFDASAYDAYIVQAVRGTMATNTENTMSLDDIIGMHDVKQVLHEAVTLPLLVPEFFQGLRSPWKAMVLAGPPGTGKTLIARAIASESSSTFFTVSSTDLSSKWRGDSEKIVRLLFELARFYAPSIIFIDQIDTLGGQRGNSGEHEASRRVKSEFLVQMDGSQNKFDSRRVFVLAATNIPWELDEALRRRFEKRIFIPLPDIDARKKLIEKSMEGTPKSDEINYDDLAARTEGFSGADVVSLCRTAAINVLRRYDTKSLRGGELTAAMESLKAELVRNIDFEAALQAVSPSAGPDTMLKCKEWCDSFGAM
- stoichiometry N (AUC [3]): 6
